Experimental data from patent US20200095340A1.
Where a chain is given by its changes, count along the chain named.

B1: anti-DLL3 trispecific protein 1D06 (protein, part only; not given: anti-CD3 fragment and anti-albumin sdAb, part only)
chain, part: EVQLVESGGGLVQPGGSLTLSCVASGSTSSINAMGWYRRAPGKQRELVAGISSDNSKVYADSVKGRFTISRDNAKNSVYLQMNSLRAEDTAVYYCYYFRTVHGSSMRYWGQGTLVTVSSGGGGSGGGSGGGGSGGGSHHHHHH
B2: anti-DLL3 trispecific protein 1A01 (protein, part only; not given: anti-CD3 and anti-albumin domains, part only)
chain, part: B1 chain, part with S27F, N55G, K57F, T100H, H102S
B3: anti-DLL3 trispecific protein 2B05 (protein, part only; not given: anti-CD3 fragment and anti-albumin domain, part only)
chain, part: B1 chain, part with S27T, N55G, S56T, R99H, H102S
B4: anti-DLL3 trispecific protein 1A04 (protein, part only; not given: anti-CD3 fragment and anti-albumin sdAb, part only)
chain, part: B1 chain, part with N55G, A60E, H102S
B5: anti-DLL3 trispecific protein 1C07 (protein, part only; not given: anti-CD3 fragment and anti-albumin sdAb, part only)
chain, part: B1 chain, part with G35A, N55G, H102S
B6: anti-DLL3 trispecific protein 2A01 (protein, part only; not given: anti-CD3 fragment and anti-albumin sdAb, part only)
chain, part: B1 chain, part with N55G, Y59V, V101L, H102S
B7: anti-DLL3 trispecific protein 1C04 (protein, part only; not given: anti-CD3 fragment and anti-albumin sdAb, part only)
chain, part: B1 chain, part with S27N, G35A, N55G, H102S
B8: anti-DLL3 trispecific protein 2A03 (protein, part only; not given: CD3 fragment and albumin sdAb, part only)
chain, part: B1 chain, part with S27T, N55G, A60G, H102S, S105A
B9: anti-DLL3 trispecific protein 1C06 (protein, part only; not given: anti-CD3 and anti-albumin domains, part only)
chain, part: B1 chain, part with S30I, N55G, A60E, T100A, H102S
B10: anti-DLL3 trispecific protein 1E07 (protein, part only; not given: anti-CD3 fragment and anti-albumin sdAb, part only)
chain, part: B1 chain, part with G35A, N55G, A60N, H102R, M106Q
B11: anti-DLL3 trispecific protein 2A08 (protein, part only; not given: anti-CD3 and anti-albumin domains, part only)
chain, part: B1 chain, part with S29K, N55G, A60R, V101S, H102S
B12: anti-DLL3 trispecific protein 1E04 (protein, part only; not given: anti-CD3 fragment and anti-albumin sdAb, part only)
chain, part: B1 chain, part with S30R, A33G, V48P, N55G, V58A, V101A, H102S, S104T
B13: anti-DLL3 trispecific protein 2H06 (protein, part only; not given: anti-CD3 fragment and anti-albumin domain, part only)
chain, part: B1 chain, part with S30T, N55G, V101A, H102S
B14: anti-DLL3 trispecific protein 2B012 (protein, part only; not given: anti-CD3 and anti-albumin domains, part only)
chain, part: B1 chain, part with S27T, N55G, A60N, H102R
B15: anti-DLL3 trispecific protein 1C011 (protein, part only; not given: anti-CD3 fragment and anti-albumin domain, part only)
chain, part: B1 chain, part with S27T, N55G, A60E, H102S
B16: anti-DLL3 trispecific protein 1B05 (protein, part only; not given: CD3 binder and albumin binder, part only)
chain, part: B1 chain, part with G35A, N55G, F98Y, H102S
B17: anti-DLL3 trispecific protein 2B03 (protein, part only; not given: CD3 fragment and albumin sdAb, part only)
chain, part: B1 chain, part with N55G, K57L, R99T, H102S
B18: anti-DLL3 trispecific protein 2G09 (protein, part only; not given: CD3 fragment and albumin sdAb, part only)
chain, part: B1 chain, part with I51V, N55G, H102S, M106A
B19: anti-DLL3 trispecific protein 2F07 (protein, part only; not given: anti-CD3 fragment and anti-albumin domain, part only)
chain, part: B1 chain, part with M34V, N55G, K57S, H102S, G103T
B20: anti-DLL3 trispecific protein 1E02 (protein, part only; not given: anti-CD3 fragment and anti-albumin sdAb, part only)
chain, part: B1 chain, part with S27Q, N55G, K57Q, V101K, H102S
B21: anti-DLL3 trispecific protein 2C010 (protein, part only; not given: CD3 binder and albumin binder, part only)
chain, part: B1 chain, part with S30K, N55R, H102A
B22: anti-DLL3 trispecific protein 2D010 (protein, part only; not given: CD3 binder and albumin binder, part only)
chain, part: B1 chain, part with N55G, V101K, H102S
B23: anti-DLL3 trispecific protein 4C010 (protein, part only; not given: CD3 binder and albumin binder, part only)
chain, part: EVQLVESGGGLVQPGGSLTLSCAASGSKVSFMSMAWYRQAPGKKRELVAGISADGSTDYIDSVKGRFTISRDNAKNSVYLQMNSLRAEDTAVYYCYAYRWTTRLTYWGQGTLVTVSSGGGGSGGGSGGGGSGGGSHHHHHH
B24: anti-DLL3 trispecific protein 3H06 (protein, part only; not given: anti-CD3 and anti-albumin domains, part only)
chain, part: B23 chain, part with K28S, F31Q, M32L, I60F, L104G
B25: anti-DLL3 trispecific protein 4C07 (protein, part only; not given: anti-CD3 and anti-albumin domains, part only)
chain, part: B23 chain, part with M32L, T57K
B26: anti-DLL3 trispecific protein 4G08 (protein, part only; not given: anti-CD3 fragment and anti-albumin sdAb, part only)
chain, part: B23 chain, part with K28S, S30R, M32L, A53T, L104Y, T105R
B27: anti-DLL3 trispecific protein 4F011 (protein, part only; not given: anti-CD3 and anti-albumin domains, part only)
chain, part: B23 chain, part with M32L, T57K, L104Y
B28: anti-DLL3 trispecific protein 3C05 (protein, part only; not given: anti-CD3 and anti-albumin domains, part only)
chain, part: B23 chain, part with A23V, S27T, K28S, M32L, D58T, L104R
B29: anti-DLL3 trispecific protein 3F05 (protein, part only; not given: CD3 binder and albumin binder, part only)
chain, part: B23 chain, part with M32L, A53T, L104R
B30: anti-DLL3 trispecific protein 3B05 (protein, part only; not given: anti-CD3 and anti-albumin domains, part only)
chain, part: B23 chain, part with A23V, K28S, S30K, M32L, D58T, L104R
B31: anti-DLL3 trispecific protein 4D06 (protein, part only; not given: anti-CD3 fragment and anti-albumin sdAb, part only)
chain, part: B23 chain, part with K28S, S30K, M32L, A53P, L104Y, T105R
B32: anti-DLL3 trispecific protein 4B02 (protein, part only; not given: CD3 binder and albumin binder, part only)
chain, part: B23 chain, part with K28R, M32L, D58T, L104F
B33: anti-DLL3 trispecific protein 4E08 (protein, part only; not given: anti-CD3 fragment and anti-albumin sdAb, part only)
chain, part: B23 chain, part with K28S, S30K, M32L, A53T, R99K, L104Y
B34: anti-DLL3 trispecific protein 4C05 (protein, part only; not given: anti-CD3 and anti-albumin domains, part only)
chain, part: B23 chain, part with K28S, F31N, M32L, D58A, L104R
B35: anti-DLL3 trispecific protein 3F011 (protein, part only; not given: anti-CD3 and anti-albumin domains, part only)
chain, part: B23 chain, part with K28S, M32L, A53T, T101R, L104Y
B36: anti-DLL3 trispecific protein 3A02 (protein, part only; not given: CD3 fragment and albumin sdAb, part only)
chain, part: B23 chain, part with K28S, M32L, M34L, D58A, T101R, L104Y
B37: anti-DLL3 trispecific protein 3B07 (protein, part only; not given: anti-CD3 fragment and anti-albumin sdAb, part only)
chain, part: B23 chain, part with K28R, M32L, D58T, L104Y
B38: anti-DLL3 trispecific protein 3C09 (protein, part only; not given: anti-CD3 and anti-albumin domains, part only)
chain, part: B23 chain, part with K28S, M32L, D58I, T101R, L104Y
B39: anti-DLL3 trispecific protein 3G09 (protein, part only; not given: CD3 fragment and albumin sdAb, part only)
chain, part: B23 chain, part with K28S, F31V, M32L, D61G, L104T
B40: anti-DLL3 trispecific protein 4G011 (protein, part only; not given: anti-CD3 fragment and anti-albumin sdAb, part only)
chain, part: B23 chain, part with K28S, S30R, M32L, D61G, T101S, L104Y

Molecular target: biotinylated human DLL3 protein expressed as a human IgG1 fusion protein (human) (UniProt Q9NYJ7)
Test: Octet BLI; biotinylated huDLL3-IgG1 fusion on streptavidin tips; single 50 nM; conditioned medium

Sequence of biotinylated human DLL3 protein expressed as a human IgG1 fusion protein (human) (Q9NYJ7 other isoform, or with tags, fused parts or gaps): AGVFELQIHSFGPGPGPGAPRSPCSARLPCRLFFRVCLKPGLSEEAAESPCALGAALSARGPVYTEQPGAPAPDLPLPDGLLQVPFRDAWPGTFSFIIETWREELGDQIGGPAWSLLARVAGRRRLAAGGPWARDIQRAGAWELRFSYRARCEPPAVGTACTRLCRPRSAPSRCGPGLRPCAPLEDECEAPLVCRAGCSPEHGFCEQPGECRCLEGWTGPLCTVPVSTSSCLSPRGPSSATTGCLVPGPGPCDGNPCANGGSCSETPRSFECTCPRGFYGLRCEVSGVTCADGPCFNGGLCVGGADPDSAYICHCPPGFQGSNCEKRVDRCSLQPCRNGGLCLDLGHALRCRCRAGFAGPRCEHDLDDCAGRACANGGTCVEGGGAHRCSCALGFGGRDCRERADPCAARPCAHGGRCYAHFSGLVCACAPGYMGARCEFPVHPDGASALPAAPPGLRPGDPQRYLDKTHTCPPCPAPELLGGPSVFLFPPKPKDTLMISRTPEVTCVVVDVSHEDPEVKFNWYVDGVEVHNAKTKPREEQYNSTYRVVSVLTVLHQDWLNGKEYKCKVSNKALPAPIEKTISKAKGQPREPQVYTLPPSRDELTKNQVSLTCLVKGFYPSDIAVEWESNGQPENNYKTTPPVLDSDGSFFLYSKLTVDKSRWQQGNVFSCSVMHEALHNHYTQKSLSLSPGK

Kd | Binder
6.8 nM | B1
7 nM | B2
7.4 nM | B3
7.8 nM | B4
7.1 nM | B5
8 nM | B6
8.1 nM | B7
8.2 nM | B8
8.3 nM | B9
7.1 nM | B10
7.7 nM | B11
8.1 nM | B12
7.9 nM | B13
7.3 nM | B14
7.6 nM | B15
8 nM | B16
7.6 nM | B17
8 nM | B18
8 nM | B19
7 nM | B20

Kd | Binder
7.6 nM | B21
7.3 nM | B22
7 nM | B23
8 nM | B24
7.5 nM | B25
7.6 nM | B26
8.2 nM | B27
8.2 nM | B28
7.5 nM | B29
7.2 nM | B30
7.5 nM | B31
7.1 nM | B32
7.2 nM | B33
8.3 nM | B34
7.1 nM | B35
8.1 nM | B36
7.3 nM | B37
7.8 nM | B38
7.3 nM | B39
7.5 nM | B40
